The target of assay [1] is T1, FLAG-SMARCAL1 (human, UniProt Q9NZC9 1-954).
T1 construct: also called SMARCAL1-WT; SMARCAL1 wild type
T1 sequence (looked up): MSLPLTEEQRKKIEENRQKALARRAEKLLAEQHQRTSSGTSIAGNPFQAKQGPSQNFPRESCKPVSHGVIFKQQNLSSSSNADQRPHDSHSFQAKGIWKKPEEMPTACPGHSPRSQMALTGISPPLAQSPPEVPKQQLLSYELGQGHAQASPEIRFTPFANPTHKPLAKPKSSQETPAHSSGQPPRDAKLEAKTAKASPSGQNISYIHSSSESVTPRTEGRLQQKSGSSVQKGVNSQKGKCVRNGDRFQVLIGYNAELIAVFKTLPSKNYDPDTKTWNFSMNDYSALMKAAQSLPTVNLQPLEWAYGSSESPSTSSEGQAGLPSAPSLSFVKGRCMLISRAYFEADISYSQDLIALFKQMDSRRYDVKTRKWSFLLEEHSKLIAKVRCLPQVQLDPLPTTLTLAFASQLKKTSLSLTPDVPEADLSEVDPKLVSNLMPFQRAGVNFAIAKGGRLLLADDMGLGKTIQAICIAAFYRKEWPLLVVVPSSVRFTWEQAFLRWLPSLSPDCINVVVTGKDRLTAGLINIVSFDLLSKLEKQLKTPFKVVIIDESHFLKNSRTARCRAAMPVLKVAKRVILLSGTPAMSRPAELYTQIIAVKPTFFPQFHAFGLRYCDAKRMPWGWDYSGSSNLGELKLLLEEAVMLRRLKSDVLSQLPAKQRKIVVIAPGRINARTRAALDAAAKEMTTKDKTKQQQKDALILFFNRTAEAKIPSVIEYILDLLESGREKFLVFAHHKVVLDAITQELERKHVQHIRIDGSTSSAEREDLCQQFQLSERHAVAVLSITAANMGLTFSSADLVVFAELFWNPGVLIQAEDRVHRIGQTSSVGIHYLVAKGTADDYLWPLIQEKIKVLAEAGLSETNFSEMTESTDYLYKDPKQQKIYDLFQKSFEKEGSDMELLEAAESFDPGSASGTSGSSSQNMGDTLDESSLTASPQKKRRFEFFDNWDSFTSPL
In words: pull-down; MBP-RAD51 (bait) from bacterial soluble extract bound to amylose resin and washed; purified FLAG-SMARCAL1, FLAG-ZRANB3 or FLAG-BCDX2 (1 μg, prey) in 150 μl IP buffer (25 mM Tris-HCl pH 7.5, 100 mM NaCl, 3 mM EDTA, 0.5 mM DTT, BSA, 10% glycerol), 1 h at 4°C; eluted with maltose; Western blot with anti-MBP and anti-FLAG. The note with it: both partners purified. A general note: Immunoblotting shows a protein as a band on a membrane.

Assay [2] concerns the target T2, SMARCAL1 F439 F→A variant (human, UniProt Q9NZC9 1-954, F439 (F→A variant)).
T2 construct: human SMARCAL1 with F439 disrupted; the methods call the variants SMARCAL1 F→A variants; construct as m1; The text says only 'disruption of F439'; also called disruption of F439; source: Sf9, purified similarly as the wild type
T2 sequence (looked up): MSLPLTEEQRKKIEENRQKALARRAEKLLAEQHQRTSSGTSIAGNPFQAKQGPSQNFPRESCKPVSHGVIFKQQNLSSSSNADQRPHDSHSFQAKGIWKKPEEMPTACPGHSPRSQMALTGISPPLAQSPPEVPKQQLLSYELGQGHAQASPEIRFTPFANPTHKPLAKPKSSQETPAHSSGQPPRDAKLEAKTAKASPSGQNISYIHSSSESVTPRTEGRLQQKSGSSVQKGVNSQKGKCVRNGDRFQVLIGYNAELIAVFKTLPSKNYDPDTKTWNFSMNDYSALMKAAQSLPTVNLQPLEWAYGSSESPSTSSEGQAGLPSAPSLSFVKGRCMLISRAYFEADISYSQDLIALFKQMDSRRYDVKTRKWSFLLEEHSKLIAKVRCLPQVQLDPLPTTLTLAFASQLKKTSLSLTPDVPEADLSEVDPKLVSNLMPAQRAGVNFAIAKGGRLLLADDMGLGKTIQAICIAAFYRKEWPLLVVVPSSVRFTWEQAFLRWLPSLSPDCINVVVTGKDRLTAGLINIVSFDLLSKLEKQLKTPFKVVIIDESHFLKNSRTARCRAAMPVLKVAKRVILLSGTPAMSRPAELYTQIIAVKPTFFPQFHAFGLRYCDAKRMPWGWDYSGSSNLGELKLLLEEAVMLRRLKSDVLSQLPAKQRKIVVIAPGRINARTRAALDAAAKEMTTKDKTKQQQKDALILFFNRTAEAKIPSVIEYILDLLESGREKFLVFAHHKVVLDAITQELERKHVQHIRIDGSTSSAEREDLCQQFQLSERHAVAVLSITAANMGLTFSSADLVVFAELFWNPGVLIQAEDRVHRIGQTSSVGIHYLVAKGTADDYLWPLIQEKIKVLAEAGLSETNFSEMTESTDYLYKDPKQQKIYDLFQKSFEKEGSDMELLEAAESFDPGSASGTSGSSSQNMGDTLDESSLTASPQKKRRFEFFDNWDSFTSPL
The assay is described as above. The settings on record: both partners purified.

B1: MBP-RAD51 (natural protein, human, UniProt Q06609 1-339, looked up)
chain: MAMQMQLEANADTSVEEESFGPQPISRLEQCGINANDVKKLEEAGFHTVEAVAYAPKKELINIKGISEAKADKILAEAAKLVPMGFTTATEFHQRRSEIIQITTGSKELDKLLQGGIETGSITEMFGEFRTGKTQICHTLAVTCQLPIDRGGGEGKAMYIDTEGTFRPERLLAVAERYGLSGSDVLDNVAYARAFNTDHQTQLLYQASAMMVESRYALLIVDSATALYRTDYSGRGELSARQMHLARFLRMLLRLADEFGVAVVITNQVVAQVDGAAMFAADPKKPIGGNIIAHASTTRLYLRKGRGETRICKIYDSPCLPEAEAMFAINADGVGDAKD
notes: In the pull-downs the MBP tag was kept; the RAD51 of the DNA annealing assays was the same construct with the MBP cut off by PreScission protease and purified on HiTrap Q; not shown: MBP, N-terminal, kept
Regarding B1, the binding result in assay [1] and in assay [2] was “binds” throughout.

For the origin of these results see paper PMC9371921, “Strand annealing and motor driven activities of SMARCAL1 and ZRANB3 are stimulated by RAD51 and the paralog complex” (Nucleic Acids Research, 2022).
